The text below walks through data of patent US20110044984A1 (Chugai, published 2011).

In the experiment the target is T1, extracellular domain of mouse AXL (mAXL-ECD; R&D) (mouse, UniProt Q00993 19-445).
T1 construct: extracellular domain; Bought protein
T1 sequence (looked up): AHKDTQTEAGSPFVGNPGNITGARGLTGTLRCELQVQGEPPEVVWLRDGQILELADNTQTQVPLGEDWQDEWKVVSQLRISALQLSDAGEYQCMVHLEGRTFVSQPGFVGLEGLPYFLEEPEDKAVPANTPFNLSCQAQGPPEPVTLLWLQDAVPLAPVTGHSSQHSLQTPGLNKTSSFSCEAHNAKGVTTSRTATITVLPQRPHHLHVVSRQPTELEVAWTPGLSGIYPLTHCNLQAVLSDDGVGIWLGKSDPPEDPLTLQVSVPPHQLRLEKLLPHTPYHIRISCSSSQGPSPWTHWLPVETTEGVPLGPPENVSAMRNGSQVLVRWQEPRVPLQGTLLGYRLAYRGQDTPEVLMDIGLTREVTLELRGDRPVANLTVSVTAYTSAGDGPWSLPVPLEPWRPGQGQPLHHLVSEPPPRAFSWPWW
Briefly: ELISA, antibody at 3 µg/mL on coated mAXL-ECD. As for the experimental part:
After the extracellular domain of mouse AXL (hereinafter referred to as mAXL-ECD; R&D) was diluted with coating buffer (100 mM sodium bicarbonate buffer, pH 9.6) to 2 μg/mL, 100 μL was dispensed into a 96-well plate (Nunc-Immuno™ 96 MicroWell™ MaxiSorp™ plates; Nalge Nunc International). After the plate was placed in a refrigerator overnight, the antibody solution in the plate was removed, 200 μL/well of diluent buffer (BlockingOne; Nacalai Tesque) was dispensed, and then blocked for two hours at room temperature. After the removal of the diluent buffer, the anti-AXL antibody prepared above diluted to 3 μg/mL with diluent buffer was dispensed at 100 μL/well, and allowed to stand for 1.5 hours at room temperature. After the removal of the antibody solution, the wells were washed three times with tPBS(−). […] After the removal of the antibody solution, the wells were washed three times with tPBS(−). 100 μL/well of alkaline phosphatase chromogenic substrate solution (BluePhos Microwell Phosphatase Substrate System, Kirkegaad & Perry Laboratories) was dispensed, followed by color development at room temperature. The absorbance at 650 nm was then measured with a microplate reader (Emax, Molecular Devices).

B1: anti-AXL monoclonal antibody Ax225 (hybridoma AXL No. 225 #070402, Accession No. FERM BP-10854) (antibody, V domains shown)
VH: QVQLKQSGPGLVAPSQSLSITCTVSGLSLTSFGVDWVRQSPGKGLEWLGVIWGGGSTNYNSALKSRLSISKDNSKSQVFLKMNSLQTDDTAMYYCAGEGSKYGAWFAYWGQGTLVTVSS
VL: DVLMTQTPLSLPVSLGDQASISCRSSQNIVHTNGNTYLEWYLQKPGQSPELLIYKVSNRFSGVPDRFSGSGSGTDFTLKISRVEAEDLGVYYCFQGSHIPFTFGTGTKLEIK
notes: Mouse antibody from a hybridoma; Variable genes were amplified with constant region primers MHCg1 (H chain) and MLCk (L chain); also called AXL225 mouse antibody
On to B1, for which the binding result was “binds”.
